Assay results from patent publication US20150216961A1 (MEDICAGO, published 2015).

Molecular target: T1, VP2 from Rotavirus A WA strain (Rotavirus A WA strain, UniProt P11231 1-890)
T1 construct: Expressed in N. benthamiana from construct 1710 and purified as part of rotavirus-like particles; also called RVA(WA) VP2; VP2(opt)
T1 sequence: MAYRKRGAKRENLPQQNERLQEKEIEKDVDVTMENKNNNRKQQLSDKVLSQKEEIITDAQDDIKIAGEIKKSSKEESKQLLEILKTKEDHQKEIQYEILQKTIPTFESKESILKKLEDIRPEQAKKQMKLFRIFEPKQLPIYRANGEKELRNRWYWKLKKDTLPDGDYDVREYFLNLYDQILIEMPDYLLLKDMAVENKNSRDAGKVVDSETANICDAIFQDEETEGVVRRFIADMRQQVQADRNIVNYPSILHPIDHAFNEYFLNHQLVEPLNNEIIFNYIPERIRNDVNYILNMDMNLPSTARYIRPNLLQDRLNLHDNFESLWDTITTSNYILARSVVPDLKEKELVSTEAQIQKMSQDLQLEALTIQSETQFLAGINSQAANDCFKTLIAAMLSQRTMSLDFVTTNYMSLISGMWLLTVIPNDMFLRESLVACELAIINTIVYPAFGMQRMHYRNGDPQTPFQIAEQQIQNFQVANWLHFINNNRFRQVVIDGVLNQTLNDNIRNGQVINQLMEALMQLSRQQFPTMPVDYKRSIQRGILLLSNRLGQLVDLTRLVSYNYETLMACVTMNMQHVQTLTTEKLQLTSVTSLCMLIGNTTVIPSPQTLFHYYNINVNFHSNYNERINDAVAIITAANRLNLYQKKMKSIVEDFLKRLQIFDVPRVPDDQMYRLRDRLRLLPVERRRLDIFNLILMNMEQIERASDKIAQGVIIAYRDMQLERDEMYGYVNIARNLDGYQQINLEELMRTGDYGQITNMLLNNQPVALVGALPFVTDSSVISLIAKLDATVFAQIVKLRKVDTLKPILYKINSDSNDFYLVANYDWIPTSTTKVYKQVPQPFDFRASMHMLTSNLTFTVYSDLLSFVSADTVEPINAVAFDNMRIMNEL
Test: co-expression in N. benthamiana, iodixanol gradient, cryo-electron microscopy

B1: VP6 from Rotavirus A WA strain (other)
chain: MEVLYSLSKTLKDARDKIVEGTLYSNVSDLIQQFNQMIVTMNGNDFQTGGIGNLPVRNWTFDFGLLGTTLLNLDANYVENARTIIEYFIDFIDNVCMDEMARESQRNGVAPQSEALRKLAGIKFKRINFDNSSEYIENWNLQNRRQRTGFVFHKPNIFPYSASFTLNRSQPMHDNLMGTMWLNAGSEIQVAGFDYSCAINAPANIQQFEHIVQLRRALTTATITLLPDAERFSFPRVINSADGATTWFFNPVILRPNNVEVEFLLNGQIINTYQARFGTIIARNFDAIRLLFQLMRPPNMTPAVNALFPQAQPFQHHATVGLTLRIESAVCESVLADANETLLANVTAVRQEYAIPVGPVFPPGMNWTELITNYSPSREDNLQRVFTVASIRSMLIK
notes: Expressed in N. benthamiana from construct 1713 and purified as part of rotavirus-like particles; also called RVA(WA) VP6; VP6(opt)
B1: binds.
